Experimental data reported in patent EP1053001B1 (AMYLIN PHARMACEUTICALS, INC., dated 2010).
No end group written: not given here.

T1: calcitonin receptors (human T47D / MCF7 breast carcinoma cells) (human, UniProt P30988 25-474)
T1 sequence (looked up): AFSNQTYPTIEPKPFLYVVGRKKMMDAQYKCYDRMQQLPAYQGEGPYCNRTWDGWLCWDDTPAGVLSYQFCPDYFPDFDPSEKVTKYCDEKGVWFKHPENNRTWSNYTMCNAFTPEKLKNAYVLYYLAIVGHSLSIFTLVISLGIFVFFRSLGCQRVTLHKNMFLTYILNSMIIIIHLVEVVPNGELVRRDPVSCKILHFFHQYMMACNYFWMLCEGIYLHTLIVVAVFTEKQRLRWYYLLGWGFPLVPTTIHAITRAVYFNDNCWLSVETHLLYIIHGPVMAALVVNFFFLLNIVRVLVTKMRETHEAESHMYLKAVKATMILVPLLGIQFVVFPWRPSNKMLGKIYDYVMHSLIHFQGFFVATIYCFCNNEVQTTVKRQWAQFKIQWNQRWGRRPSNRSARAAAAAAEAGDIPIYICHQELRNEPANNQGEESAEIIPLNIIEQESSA

T2: rat calcitonin C1a receptor (rat, UniProt P32214 25-516)
T2 sequence (looked up): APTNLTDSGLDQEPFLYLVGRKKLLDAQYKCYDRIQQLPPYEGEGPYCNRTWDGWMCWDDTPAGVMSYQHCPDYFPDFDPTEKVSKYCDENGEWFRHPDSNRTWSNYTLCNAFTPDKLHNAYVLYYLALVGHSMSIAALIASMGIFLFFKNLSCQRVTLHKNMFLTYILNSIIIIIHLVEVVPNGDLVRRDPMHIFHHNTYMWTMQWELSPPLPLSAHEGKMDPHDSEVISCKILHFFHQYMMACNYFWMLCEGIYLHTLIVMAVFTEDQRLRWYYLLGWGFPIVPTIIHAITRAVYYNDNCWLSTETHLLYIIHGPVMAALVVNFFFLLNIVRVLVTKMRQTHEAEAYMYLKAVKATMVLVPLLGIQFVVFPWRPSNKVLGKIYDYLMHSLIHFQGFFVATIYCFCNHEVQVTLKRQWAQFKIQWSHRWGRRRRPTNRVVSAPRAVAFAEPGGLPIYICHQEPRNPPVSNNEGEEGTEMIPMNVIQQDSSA


How the values were obtained:
[1] = target: T1, calcitonin receptors (human T47D / MCF7 …); experiment: cell-based or functional assay
[2] = target: T2, rat calcitonin C1a receptor; experiment: cell-based or functional assay
[3] = target: T3, amylin receptors (rat nucleus accumbens membranes) (rat); experiment: radioligand competition vs 125I-BH-rat amylin, rat nucleus accumbens membranes
T3 construct: Assayed as a tissue membrane preparation, not on intact cells; also called amylin (nucleus accumbens) receptors

Binder | IC50 [3] [nM] | also measured
XLSTAVLGRLSQELHRLQTYPRTNTGSNTY (acetylated with acetic anhydride (site not given)) [Compound 6] | – | fold lower potency than human calcitonin, adenylyl cyclase, MCF7-7 cells [1]: 80 fold
LSTCVLGRLSQELHRLQTYPRTNTGSNTY (not fully specified) [Compound 1] | – | EC50 of adenyl cyclase stimulation, HEK293 cells stably transfected with rat calcitonin C1a receptor [2]: 0.97 nM
LSTAVLGRLSQELHRLQTYPRTNTGSNTY-NH2 (not fully specified) [Compound 4] | 0.066 | –
LSTSVLGRLSQELHRLQTYPRTNTGSNTY-NH2 [Compound 5] | 0.092 | –
